Assay results reported in article doi:10.1101/2024.12.31.629942 (bioRxiv, 2024).
Residue numbers refer to the chain shown, from its start. Numbers in names are those of the source.

How the values were obtained:
FtsZ^D212N (untagged) = target: T1, FtsZ^D212N (untagged) (E. coli, UniProt P0A9A6 1-383, D212N); test: pull-down
T1 sequence: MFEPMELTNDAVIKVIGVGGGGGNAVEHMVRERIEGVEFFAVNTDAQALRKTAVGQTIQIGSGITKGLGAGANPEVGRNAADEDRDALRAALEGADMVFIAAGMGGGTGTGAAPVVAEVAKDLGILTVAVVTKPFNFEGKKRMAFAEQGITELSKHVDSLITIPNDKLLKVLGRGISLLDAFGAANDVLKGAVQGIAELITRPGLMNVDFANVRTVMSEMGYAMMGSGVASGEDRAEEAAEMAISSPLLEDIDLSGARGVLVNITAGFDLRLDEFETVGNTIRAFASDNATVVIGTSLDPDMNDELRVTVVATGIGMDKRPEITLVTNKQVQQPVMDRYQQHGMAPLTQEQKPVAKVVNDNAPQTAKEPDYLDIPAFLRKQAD

[1] = target: T2, FtsZ (wild-type, untagged) (E. coli, UniProt P0A9A6 1-383); test: co-sedimentation
T2 sequence: T1 sequence with N212D

[2] = target: the molecule itself; test: sedimentation of polymers

B1: H-SUMO-ZapA (natural protein)
chain: MSAQPVDIQIFGRSLRVNCPPDQRDALNQAADDLNQRLQDLKERTRVTNTEQLVFIAALNISYELAQEKAKTRDYAASMEQRIRMLQQTIEQALLEQGRITEKTNQNFE
Does B1 bind (FtsZ^D212N (untagged))?
Result: binds

B2: ZapA (untagged) (natural protein)
chain: B1 chain
Does B2 bind [1]?
Result: binds

B3: FtsZ^F2A (untagged) (natural protein)
chain: T1 sequence with F2A, N212D
Does B3 bind [2]?
Result: binds
